B1: NI04359_d30_245 Fab (Fab, V domains shown)
VH: EVQLVESGGGLFKPGGSLRLSCAASGFTFRNAWMSWVRQAPGKGLEWVGRIKSKADGGTTDYAASVKGRFTISRDDSKNTLYLHMNSLKTEDTAVYYCTTPPEIAVVAAAMRDYYYGLDVWGPGTTVTVSS
VL: SYELTQPVSVSVALGQTARITCGGNNIGSKSLHWYQQKPGQAPVLVIYRDNNRPSGIPERFSGSNSGNTATLTISRAQAGDEADYYCQVWDSSTYVVFGGGTRLTVL
notes: also called mAb NI04359_d30_245; source: Expi293F, co-transfected, Fab purified from supernatant (Ni-NTA agarose)
B2: NI01056_d30_604 Fab (Fab, V domains shown)
VH: QVQLQESGPGLVKPSETLSLTCTVSGGSISNYYWTWIRQPPGKGLEWIGYMYDSGNTKYNSSLRSRLTMSLDTSKNQFSLKMRSVTAADTAVYYCARGGGVRNLLGLRFVSDYMDVWGKGTTVTVSS
VL: DIQMTQSPSTLSASVGDRVTITCRASQSISSWLAWYQQKPGKAPHLLIYQASSLETGVPSRFSGSGSGTEFTLTISSLQPDDFATYYCQQYNTYSSTFGQGTQLQIK
notes: also called mAb NI01056_d30_604; source: Expi293F, co-transfected, Fab purified from supernatant (Ni-NTA agarose)
B3: NI06063_d30_103 mAb (human IgG1) (antibody, V domains shown)
VH: QVHLVESGGGVVQPGRSLRLSCAASGFTFSNYGMHWVRQAPGKGLEWVAFISYDGSNEYYADSVKGRFTISRDYSKYTLYLQMNSLRAEDTAVYYCAKDGQWLVRGAFDFWGQGTMVTVSS
VL: QSALTQPASVSGSPGQSITISCSGTGSDVGSSHLVSWYQHHPGKAPKLMIFEVSKRPLGVSNRFSGSKSGNTASLTISGLQTEDEADYYCCSYAGGRGVFGGGTKLTVL
notes: IgG1; also called mAb d30_103

Columns and labels:
Conditions in all cases: both partners purified
[1] = biological target: T1, H1N1 A/Solomon Islands/3/2006 HA protein (Influenza A virus A/Solomon …, strain); assay: cryo-EM structure
T1 construct: source: purified

[2] = biological target: A/USSR/90/1977 H1 hemagglutinin, recombinant (Influenza A virus A/USSR/90/1977 (H1N1), UniProt P03453, strain, biotin on the AviTag); assay: ELISA
[3] = biological target: A/Brisbane/59/2007 H1 hemagglutinin, recombinant (Influenza A virus A/Brisbane/59/2007 …, UniProt D5F1Q8, strain, biotin on the AviTag); assay: ELISA
[4] = biological target: A/New Caledonia/20/1999 (NC99) H1 hemagglutinin, recombinant (Influenza A virus A/New …, UniProt Q6WG00, strain, biotin on the AviTag); assay: ELISA

Binder | binding result [1] | binding result [2] | binding result [3] | binding result [4]
B1 | binds |  |  | 
B2 | binds |  |  | 
B3 |  | no binding | no binding | no binding
